This assay addresses Paracoccidioides americana (Pb03) Cbp1 (Paracoccidioides americana (Pb03)). Put plainly: crystal structure.

With “Paracoccidioides americana (Pb03) Cbp1 (natural protein)”, the stoichiometry N (in general, a count of units in the complex or per binding partner) was 2.

Values taken from article PMC9255746.
